Assay results taken from the supplement of paper PMC9170038.

Key:
MS2 coat protein [1] = assay: apparent KD of MS2 coat protein, switch ON state; designed switch direction (-1 OFF switch, 1 ON switch): -1; higher = weaker reporter binding; conditions: FMN input: 0 or 200 uM; Eterna round: R93 (includes R88 designs)
In short: (§1)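 Apparent KD was obtained for each design as the median of normalised binding-curve fits over its clusters. RNA switches transcribed on-chip from Illumina sequencing clusters were titrated with SNAP-549-labelled MS2 coat protein (twofold steps, 0.7 or 1.5 nM to 3 µM) in 100 mM Tris-HCl pH 7.5, 80 mM KCl, 4 mM MgCl2, without or with constant ligand.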

MS2 coat protein [2] = assay: apparent KD of MS2 coat protein, switch OFF state (with FMN for OFF switches, without FMN for ON switches); designed switch direction (-1 OFF switch, 1 ON switch): -1; higher = weaker reporter binding; conditions: FMN input: 0 or 200 uM; Eterna round: R93 (includes R88 designs)
In short: as §1

Row | Sequence | apparent KD of MS2 coat protein (MS2 coat protein [1]) [nM] | apparent KD of MS2 coat protein (MS2 coat protein [2]) [nM]
1 | AGAUAGUCAGGAUAUACGAACAAGAAAAAAGACGAGAACGGACAUGAGGAUCACCCAUGUAGAAGGGACAAGAA [Diamond 12] | 63 | 37
2 | UUAAUAGUAGGAUAUACAUGAGGAUCACCCAUGUAGCAACUACACAAAGGAACCUGAUGUAGAAGGACUUCCAG [Attionuson] | 12.4 | 13.6
3 | GAAAAGGUAGGAUAUACGAAAAAAAAGGGUAGAAAAAAAACACAUGAGGAUCACCCAUGUAGAAGGACCAAAAG [Mat - Exclusion 2 - Tesla mod - D30] | 26.6 | 602
4 | AAGAUCAGAGGAUAUACAGAAGGUGAUGAAAACAUCGCCAAACAUGAGGAUCACCCAUGUAGAAGGCUGAUCAA [JL EX2 2] | 119 | 204
5 | AACUGACAUGAGGAUCACCCAUGUCAGGAUAUGACUUGACGAAAAAAAACACGUCAUGUCAGAAGGGACAUGAA [Design 88: Sub-opt YB] | 15 | 16.9
6 | AAAAAGUGAGGAUAUGAAAAUAAAAAAAACAAACAAAUAAAUCAGAAGGCACAUGAGGAUCACCCAUGUAAAAA [JR_Exc004_Sub1202] | 36.8 | 26.2
7 | AAAAAGGGAGGAUAUACAUGAGGAUCACCCAUGUAUCAGACGAAAAAGAGUCUGAAAAGUAGAAGGCCCAAAAA [65%, Moding Exclusion3-cac2, 6] | 15.5 | 20.8
8 | AACAGUACAGGAUAUACAUGAGGAUCACCCAUGUGGGAAAAAAGAUCGAGAGAUCCAUGUAGAAGGGUACUGGA [JL In the Red 06] | 85.5 | 25.6
9 | AAGAAGUGAGGAUAUGCUGCUCGUCACUUGCGUGAUGAGUAGCAGAAGGCACAUGAGGAUCACCCAUGUAAAAA [Mat - Exaclusion 4 - Eli mod - D2] | 34.8 | 45.7
10 | GGAUGCCUAGGAUAUACAUGAGGAUCACCCAUGUGAGAGAAAAAAGUGAGAAAGAAAAGUAGAAGGAGGUGUCG [salish99-ex3-91] | 38 | 92.4
11 | AGCUCGGUAGGAUAUACAAAAUGAUUGCGAAAGCAAUCAACACAUGAGGAUCACCCAUGUAGAAGGACCGAGCA [Mat - Exclusion 2 - JL-Eli mod - D42] | 15.2 | 20
12 | AGCUAGUCAGGAUAUACGAACAAGACAAAAGACGUGAAGGGACAUGAGGAUCACCCAUGUAGAAGGGACUAGCA [74%, Web mod - With 2 less U's] | 26.2 | 71.3
13 | AGUUGGCGAGGAUAUACAUGAGGAUCACCCAUGUGAGAGAAAUAAGUGAGAAAGAAAAGUAGAAGGCGCUCACA [JL Lego Mod 17] | 68 | 47.4
14 | AAAAAACAUGAGGAUCACCCAUGUGAGGAUAUGCAAAACUUAUAUAAAAAGGGAAAAAGUAGAAGGCACAAAAA [LROPPY Exclusion 1 - v09_water mod] | 30.4 | 39.2
15 | AAAUGACAUGAGGAUCACCCAUGUCAGGAUAUGACUUGAAAAAAAAAAAAAAAACAUGUCAGAAGGGACAUGAA [Design 48: Sub-opt E] | 17.2 | 16.8
16 | AAAAACUGAGGAUAUACAUGAGGAUCACCCAUGUAAAAAAAAAAAAAGGGAAAAAAAAGUAGAAGGCAGAAAAA [Nebiriau II] | 26.1 | 41
17 | AGAAAGUGAGGAUAUACGAAACCAGCCUAAAUGGCUGGAAAGUAGAAGGCACAUGAGGAUCACCCAUGUAAAGA [Ex4 sub 1] | 32.3 | 43.4
18 | AAAGUGUGAGGAUAUGUCAAAGGUCACGAAAGUGACAAAGGACAGAAGGUACAUGAGGAUCACCCAUGUAAAAA [65% + different segment] | 39.8 | 32
19 | AAGACUACAGGAUAUACAUGAGGAUCACCCAUGUAACUGACGGAUAGAUGACGGAGAAGUAGAAGGGUAGUCAA [Ruby 38] | 16.9 | 26.4
20 | AGCUAGUCAGGAUAUACGAACAUGUCAAAAGACGUGAAGAAACAUGAGGAUCACCCAUGUAGAAGGGACUAGCA [Mat - Exclusion 2 - JL-Eli mod - D50] | 16.7 | 12.4
21 | CAGUACUGAGGAUAUACAUGAGGAUCACCCAUGUGGUCCAGCUAGGAAACUAGCACGUGUAGAAGGCAGUACUG [Ex3: 840] | 29.5 | 20
22 | AAGAACCAAGGAUAUACAAAAUAAAAGAAAAGAAAGAAAGAACAUGAGGAUCACCCAUGUAGAAGGUGGAAGAA [Khaankhre Sobekhotep] | 47.7 | 41.6
23 | UAAAGACAUGAGGAUCACCCAUGUGAGGAUAUCGGAGAUGACGGAACAUCAAGUUCGGCGAGAAGGCGCAGGAA [JR_Exc001_Sub406] | 30.9 | 30.7

Row | Sequence | apparent KD of MS2 coat protein (MS2 coat protein [1]) [nM] | apparent KD of MS2 coat protein (MS2 coat protein [2]) [nM]
24 | AAGAAGUGAGGAUAUGUAUCAGUAUAGUUGCCUAUACUGAUGUAGAAGGCACAUGAGGAUCACCCAUGUCCUAA [Exclusion4-cac1] | 21.7 | 30.8
25 | AGAAAGCGAGGAUAUACUAAGAAACCUCAAAGAAAGAAGAAACAUGAGGAUCACCCAUGUAGAAGGCGCAAAGA [JR_Exc002_Sub002] | 28.3 | 70.8
26 | CUCAAGUAAGGAUAUCCAAGAAAAGAAGAGAAAGAAAAGAAGGAGAAGGUACAUGAGGAUCACCCAUGUAAGAA [EteRNA is fun!] | 28.7 | 23.7
27 | AAGAAGCAAGGAUAUACAUGAGGAUCACCCAUGUAAAAGAAAGAAAAGGGAAAGAAAAGUAGAAGGUGCGAAAA [Ruby 70] | 29.9 | 51.9
28 | AAGAAACAUGAGGAUCACCCAUGUGAGGAUAUUCAAGAAAGAAAGAAAGAAAGAAGAAGAAGAAGGCACAAAGG [Lucius Seius Strabo] | 29 | 32
29 | UAAAACCUAGGAUAUACAUGAGGAUCACCCAUGUGGCACUCCGCAGGCAUUGUUCCCAGUAGAAGGAGGACACG [Inan] | 20.6 | 23.9
30 | CUCUUGUGAGGAUAUGAAAGAAAAGAAAAGAAAGAAAAGAAUCAGAAGGCACAUGAGGAUCACCCAUGUAAGAA [EteRNA is fun!] | 37 | 79.7
31 | AACUGGUGAGGAUAUCUGGAUAGGAAAAAGAAAACCUAUCCAGAGAAGGCACAUGAGGAUCACCCAUGUAAAAA [JL cataway mod 9] | 56 | 51.9
32 | AACUGACAUGAGGAUCACCCAUGUCAGGAUAUGACUUCGAAAAAUAAAAUAAACGAUGUCAGAAGGGACAUGGG [Design 68: Sub-opt O] | 21.2 | 19
33 | AUAAACAGAGGAUAUACACAAAAUAAAGAAAAUAAAGAAACACAUGAGGAUCACCCAUGUAGAAGGCUGGAAAA | 23.3 | 22.7
34 | AGCUAGUCAGGAUAUACGAAAAUGUCAGAGGCAGUAAGGGAACAUGAGGAUCACCCAUGUAGAAGGGACUAGCA [Diamond 40] | 36.1 | 87.7
35 | GCUGGCCAAGGAUAUACAUGAGGAUCACCCAUGUGAGAGAAAAAAGUGAGAAAGAAAAGUAGAAGGUGGUUAGG [salish99-ex3-114] | 43.9 | 41
36 | AAGAACUGAGGAUAUACAUGAGGAUCACCCAUGUAAAAGAAAGAAAGGGAAAAGAAAAGUAGAAGGCAGAAGAA [Menmaatre-setpenptah Ramesses XI] | 51.1 | 59.4
37 | GUAAACCUAGGAUAUACAUGAGGAUCACCCAUGUAAAAUUUAAUAAAAAGAAAAUCAAGUAGAAGGAGGUAGAU [JR_Exc003_Sub1224] | 25.4 | 29.3
38 | AAACUACUAGGAUAUACAACGGUGUCCUAACUACUAAGAAGACAUGAGGAUCACCCAUGUAGAAGGAGUAGUGA [Sosogeen] | 50.3 | 37.8
39 | AAGAAACAUGAGGAUCACCCAUGUGAGGAUAUACAAAAGAAAAGAAAAGAAAGAAGAAGUAGAAGGCACAAAGG [Djedkare Shemai] | 22.5 | 20.3
40 | AGUUGGCGAGGAUAUACAUGAGGAUCACCCAUGUAAAAUAAAUAAAAAAUAAGGGAAAGUAGAAGGCGCUGACA [73%, Moding Norbert Elias, 14] | 46.5 | 112
41 | AGAAAACAUGAGGAUCACCCAUGUCAGGAUAUGAAAAAGAAAAGAAAAGAAAGAAGAAUCAGAAGGGACAAGAA [Senedj] | 38.2 | 40.3
42 | AAACCACAUGAGGAUCACCCAUGUGAGGAUAUGAACGAAAAUAAAUAAAAAUAAAAGUUCAGAAGGCACAAAAA [66%, Wbt, 12] | 21.3 | 23.6
43 | AAAAAACAUGAGGAUCACCCAUGUGAGGAUAUGCGAAAAAAAAAAUAAAAAAAAAAAAGUAGAAGGCACACCAA [Mat - Exclusion 1 - Eli mod - D55] | 41.9 | 44.1
44 | GGAACACAUGAGGAUCACCCAUGUCAGGAUAUGUAGAUAAAAAGAAAAUAAAAUAAAAGCAGAAGGGACAAAAG [May 4] | 60.2 | 44.5
45 | AAAAAACAUGAGGAUCACCCAUGUGAGGAUAUGGAAAAAUAAGGACAGUAAAGAUAAACCAGAAGGCACAAAUA [JR_Exc001_Sub1101] | 26.4 | 24.1
